Test results reported in publication PMC4811778 (eLife, 2016).

Molecular target: T1, ElaB (E. coli, UniProt P0AEH5 1-101)
T1 construct: ElaB, E. coli, paralogue of YqjD, inner membrane-associated; source: endogenous, E. coli (MG1665) lysate, log phase and stationary phase
T1 sequence (looked up): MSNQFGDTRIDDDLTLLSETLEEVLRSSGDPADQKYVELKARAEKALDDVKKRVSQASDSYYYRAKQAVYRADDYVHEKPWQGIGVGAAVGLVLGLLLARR
Experiment: cross-linking; quantitative CXMS: log phase and stationary phase E. coli (MG1665) lysates (100 µg each, 50 mM HEPES pH 8.0, 150 mM NaCl) cross-linked with [d0]-/[d6]-bAL2 at RT for 1 hr, forward and reverse labelling; pLink, pQuant
Details: partners not purified

B1: YqjD (natural protein, E. coli, UniProt P64581 1-101, looked up)
chain: MSKEHTTEHLRAELKSLSDTLEEVLSSSGEKSKEELSKIRSKAEQALKQSRYRLGETGDAIAKQTRVAAARADEYVRENPWTGVGIGAAIGVVLGVLLSRR
notes: source: endogenous, E. coli (MG1665) lysate, log phase and stationary phase
- fold increase of the cross-link in the stationary phase over the log phase: ≥ 10 fold
